Results: patent US20200317768A1 (published 2020)
Residue numbers refer to the chain shown, from its start.

T1: cynomolgus monkey FcγRIIIaS extracellular domain with C-terminal His-tag (cynomolgus monkey, UniProt Q8SPW2 21-206 at identity 1.00))
T1 construct: Expressed in FreeStyle 293 cells and purified; also called cyno FcγRIIIaS; cynoFcγRIIIaS; not shown: C-terminal His-tag
T1 chain: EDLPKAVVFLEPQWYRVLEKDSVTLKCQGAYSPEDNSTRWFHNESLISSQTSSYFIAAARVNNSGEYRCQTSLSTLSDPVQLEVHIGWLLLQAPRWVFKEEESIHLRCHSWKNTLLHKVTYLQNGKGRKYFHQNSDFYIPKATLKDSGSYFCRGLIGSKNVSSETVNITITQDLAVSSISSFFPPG

T2: human FcγRIIb extracellular domain with C-terminal His-tag (human, UniProt P31994 43-217)
T2 construct: Expressed in FreeStyle 293 cells and purified; also called humanFcgRIIb; not shown: C-terminal His-tag
T2 sequence: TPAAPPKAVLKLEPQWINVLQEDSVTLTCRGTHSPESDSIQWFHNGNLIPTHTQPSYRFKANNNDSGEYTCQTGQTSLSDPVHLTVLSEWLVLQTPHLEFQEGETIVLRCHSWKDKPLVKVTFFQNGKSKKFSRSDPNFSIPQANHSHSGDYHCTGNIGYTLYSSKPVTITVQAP

T3: human FcγRIIaR extracellular domain with C-terminal His-tag (human, UniProt P12318 34-217)
T3 construct: Expressed in FreeStyle 293 cells and purified; also called human FcγRIIa (type R); FcgRIIaR; not shown: C-terminal His-tag
T3 chain: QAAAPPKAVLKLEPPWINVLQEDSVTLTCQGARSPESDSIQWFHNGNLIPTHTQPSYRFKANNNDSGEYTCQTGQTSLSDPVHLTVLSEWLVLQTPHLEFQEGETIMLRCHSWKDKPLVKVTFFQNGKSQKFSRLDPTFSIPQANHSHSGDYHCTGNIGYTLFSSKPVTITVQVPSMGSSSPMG

T4: human FcγRIIaH extracellular domain with C-terminal His-tag (human, UniProt P12318 34-217)
T4 construct: Expressed in FreeStyle 293 cells and purified; also called human FcγRIIa (type H); FcgRIIaH; not shown: C-terminal His-tag
T4 sequence: T3 chain with R134H

T5: cynomolgus monkey FcγRIIa2 extracellular domain with C-terminal His-tag (cynomolgus monkey)
T5 construct: Expressed in FreeStyle 293 cells and purified; also called cyno FcγRIIa2; cynoFcgRIIa2; not shown: C-terminal His-tag
T5 chain: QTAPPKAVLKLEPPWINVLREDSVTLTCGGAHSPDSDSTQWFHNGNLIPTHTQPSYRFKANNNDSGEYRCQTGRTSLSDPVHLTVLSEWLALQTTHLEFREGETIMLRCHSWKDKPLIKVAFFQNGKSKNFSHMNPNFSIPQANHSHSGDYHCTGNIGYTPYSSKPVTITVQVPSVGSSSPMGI

T6: cynomolgus monkey FcγRIIa3 extracellular domain with C-terminal His-tag (cynomolgus monkey)
T6 construct: Expressed in FreeStyle 293 cells and purified; also called cyno FcγRIIa3; cynoFcgRIIa3; not shown: C-terminal His-tag
T6 chain: T5 chain with K127I, N130K, H133P, Q142R

T7: cynomolgus monkey FcγRIIb extracellular domain with C-terminal His-tag (cynomolgus monkey)
T7 construct: Expressed in FreeStyle 293 cells and purified; also called cyno FcγRIIb; cynoFcγRIIb; not shown: C-terminal His-tag
T7 chain: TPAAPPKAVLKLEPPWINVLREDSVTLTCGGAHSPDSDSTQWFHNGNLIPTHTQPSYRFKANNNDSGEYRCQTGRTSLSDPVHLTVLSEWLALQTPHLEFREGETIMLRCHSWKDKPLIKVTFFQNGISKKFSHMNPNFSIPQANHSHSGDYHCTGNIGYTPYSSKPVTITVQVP

B1: M103205H795-MY172 / M103202L889-SK1 (antibody, human IgG1, kappa)
heavy: QVTLKESGPVLVKPTETLTLTCTVSGIDLSHDDISWVRQAPGKGLEWVGIISYAGSTYYASWAKGRLTISKDTSKNQVVLTMTNMDPVDTATYYCARGVPAYSHGGDLWGQGTLVTVSSASTKGPSVFPLAPSSKSTSGGTAALGCLVKDYFPEPVTVSWNSGALTSGVHTFPAVLQSSGLYSLSSVVTVPSSSLGTQTYICNVNHKPSNTKVDKKVEPKSCDKTHTCPPCPAPELLNGPSVFLFPPKPKDTLMISRTPEVTCVVVDVSEEDPEVKFNWYVDGVEVHNAKTKPREEQYNSTYRVVSVLTVLHQDWLNGKEYKCKVSNKALPAPIEKTISKAKGQPREPQVYTLPPSREEMTKNQVSLTCLVKGFYPSDIAVEWESNGQPENNYKTTPGVLDSDGSFFLYSKLTVDKSRWQQGNVFSCSVMHEALHNHYTQKSLSLSP
light: DIVMTQSPATLSLSPGERATLSCTSSQSVYHANWLSWFQQKPGQPPKLLIYWASTLAYGVPSRFSGSGSGTDFTLTISSLQPEDAATYYCAGGYGGGRYAFGQGTKVEIKRTVAAPSVFIFPPSDEQLKSGTASVVCLLNNFYPREAKVQWKVDNALQSGNSQESVTEQDSKDSTYSLSSTLTLSKADYEKHKVYACEVTHQGLSSPVTKSFNRGEC
notes: Position 396 variant derived from MY052, expressed with M103202L889-SK1 as light chain
B2: M103205H795-MY184 / M103202L889-SK1 (antibody, human IgG1, kappa)
heavy: B1 heavy with G398Y
light: B1 light
notes: as for B1
B3: M103205H795-MY178 / M103202L889-SK1 (antibody, human IgG1, kappa)
heavy: B1 heavy with G398Q
light: B1 light
notes: as for B1
B4: M103205H795-MY181 / M103202L889-SK1 (antibody, human IgG1, kappa)
heavy: B1 heavy with G398T
light: B1 light
notes: as for B1
B5: M103205H795-MY182 / M103202L889-SK1 (antibody, human IgG1, kappa)
heavy: B1 heavy with G398V
light: B1 light
notes: as for B1
B6: M103205H795-MY177 / M103202L889-SK1 (antibody, human IgG1, kappa)
heavy: B1 heavy with G398N
light: B1 light
notes: as for B1
B7: M103205H795-MY180 / M103202L889-SK1 (antibody, human IgG1, kappa)
heavy: B1 heavy with G398S
light: B1 light
notes: as for B1
B8: M103205H795-MY174 / M103202L889-SK1 (antibody, human IgG1, kappa)
heavy: B1 heavy with G398I
light: B1 light
notes: as for B1
B9: M103205H795-MY179 / M103202L889-SK1 (antibody, human IgG1, kappa)
heavy: B1 heavy with G398R
light: B1 light
notes: as for B1
B10: M103205H795-MY173 / M103202L889-SK1 (antibody, human IgG1, kappa)
heavy: B1 heavy with G398H
light: B1 light
notes: as for B1
B11: M103205H795-MY176 / M103202L889-SK1 (antibody, human IgG1, kappa)
heavy: B1 heavy with G398L
light: B1 light
notes: as for B1
B12: M103205H795-MY175 / M103202L889-SK1 (antibody, human IgG1, kappa)
heavy: B1 heavy with G398K
light: B1 light
notes: as for B1
B13: M103205H795-MY183 / M103202L889-SK1 (antibody, human IgG1, kappa)
heavy: B1 heavy with G398W
light: B1 light
notes: as for B1

Biological target: T1, cynomolgus monkey FcγRIIIaS …
Assay: SPR (Biacore), antibody captured on chip, FcgR extracellular domain as analyte, 25 C

Kd	Binder
3.3 µM	B1
3.3 µM	B2
3 µM	B3
4.1 µM	B4
3.5 µM	B5
2.9 µM	B6
3.1 µM	B7
2.5 µM	B8
2.7 µM	B9
3.1 µM	B10
2.7 µM	B11
2.6 µM	B12
3.5 µM	B13

biological target: T2, human FcγRIIb extracellular domain with …; assay: SPR (Biacore); KD of SG1 divided by KD of the variant for this FcgR;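 also: relative to parent M103205H795-SG1 carrying the SG1 human heavy chain constant region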

KD fold (SG1 = 1)	Binder
2.6 fold	B1
4.2 fold	B2
3.5 fold	B3
3.3 fold	B4
3.8 fold	B5
4.2 fold	B6
2.4 fold	B7
5.4 fold	B8
3.8 fold	B9
4.6 fold	B10
6.6 fold	B11
5.5 fold	B12
4.2 fold	B13

Biological target: T3, human FcγRIIaR extracellular domain …
Assay: as above

KD fold (SG1 = 1)	Binder
0.4 fold	B1
0.6 fold	B2
0.5 fold	B3
0.4 fold	B4
0.5 fold	B5
0.6 fold	B6
0.4 fold	B7
0.8 fold	B8
0.5 fold	B9
0.6 fold	B10
0.8 fold	B11
0.7 fold	B12
0.5 fold	B13

biological target: T8, human FcγRIIIaV extracellular domain with C-terminal His-tag (human, UniProt P08637 17-208); assay: as above
T8 construct: Expressed in FreeStyle 293 cells and purified; also called FcgRIIIaV; not shown: C-terminal His-tag
T8 sequence (P08637 17-208 F176V): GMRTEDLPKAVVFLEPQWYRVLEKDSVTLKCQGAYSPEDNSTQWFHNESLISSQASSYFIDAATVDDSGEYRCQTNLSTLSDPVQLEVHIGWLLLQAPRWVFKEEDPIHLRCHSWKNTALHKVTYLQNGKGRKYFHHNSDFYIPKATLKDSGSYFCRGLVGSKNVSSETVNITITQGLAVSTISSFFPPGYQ

KD fold (SG1 = 1)	Binder
0.12 fold	B1
0.12 fold	B2
0.18 fold	B3
0.11 fold	B4
0.12 fold	B5
0.13 fold	B6
0.14 fold	B7
0.12 fold	B8
0.14 fold	B9
0.12 fold	B10
0.13 fold	B11
0.11 fold	B12
0.11 fold	B13

biological target: T4, human FcγRIIaH extracellular domain …; assay: as above

KD fold (SG1 = 1)	Binder
0.4 fold	B1
0.6 fold	B2
0.5 fold	B3
0.5 fold	B4
0.5 fold	B5
0.7 fold	B6
0.4 fold	B7
0.9 fold	B8
0.6 fold	B9
0.7 fold	B10
1 fold	B11
0.8 fold	B12
0.6 fold	B13

Biological target: T5, cynomolgus monkey FcγRIIa2 …
Assay: as above

KD fold (SG1 = 1)	Binder
1.5 fold	B1
2.6 fold	B2
2.4 fold	B3
2.2 fold	B4
2.3 fold	B5
2.8 fold	B6
1.9 fold	B7
3.2 fold	B8
2.5 fold	B9
2.8 fold	B10
3.6 fold	B11
3.4 fold	B12
2.5 fold	B13

Biological target: T6, cynomolgus monkey FcγRIIa3 …
Assay: as above

KD fold (SG1 = 1)	Binder
1.5 fold	B1
2 fold	B2
2 fold	B3
1.8 fold	B4
2.2 fold	B5
2.1 fold	B6
1.4 fold	B7
2.7 fold	B8
2.2 fold	B9
2.1 fold	B10
2.8 fold	B11
2.5 fold	B12
2 fold	B13

Biological target: T7, cynomolgus monkey FcγRIIb extracellular …
Assay: as above

KD fold (SG1 = 1)	Binder
1.5 fold	B1
2 fold	B2
1.9 fold	B3
1.8 fold	B4
1.9 fold	B5
2.2 fold	B6
1.4 fold	B7
2.8 fold	B8
1.8 fold	B9
2.3 fold	B10
3 fold	B11
2.5 fold	B12
1.9 fold	B13
